Source: US20140087995A1 (published 2014)
Numbered stars: 1 amine (or outer) side, 2 acyl side, 3 side chain; on linkers, the order of the positions; unused ones are H or OH. Bridge positions count the residues as written; N and C are the ends. Side chains are listed from the residue outwards. Ends that are not written are not given here. * marks the point of attachment. C20 diacid = O=C(O)CCCCCCCCCCCCCCCCCCC(=O)*; γGlu = O=C(O)[C@H](CCC(=O)[*:2])N[*:1]; AEEA = NCCOCCOCC(=O)O

T1: rat amylin receptor (rat calcitonin receptor + rat RAMP 3) (rat, UniProt P32214 25-516; Q9JJ73 23-147)
T1 construct: whole, on cells; Cell membranes of transiently transfected BHK tk'ts 13 cells (Assay VI); also called rAmylin-R; rat amylin 3(a) receptor
T1 sequence (looked up) 1: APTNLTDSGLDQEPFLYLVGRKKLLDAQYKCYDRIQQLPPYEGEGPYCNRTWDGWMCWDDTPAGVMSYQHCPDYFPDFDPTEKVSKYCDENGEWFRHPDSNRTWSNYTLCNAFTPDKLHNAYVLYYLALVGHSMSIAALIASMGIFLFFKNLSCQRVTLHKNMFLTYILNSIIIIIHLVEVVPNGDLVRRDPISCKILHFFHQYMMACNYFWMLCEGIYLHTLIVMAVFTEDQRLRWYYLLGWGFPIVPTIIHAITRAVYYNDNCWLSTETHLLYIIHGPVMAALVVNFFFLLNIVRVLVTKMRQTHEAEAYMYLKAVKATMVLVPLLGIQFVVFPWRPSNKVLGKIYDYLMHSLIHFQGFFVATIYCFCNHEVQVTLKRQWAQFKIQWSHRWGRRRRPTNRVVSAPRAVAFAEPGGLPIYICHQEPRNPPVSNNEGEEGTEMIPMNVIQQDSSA
T1 sequence (looked up) 2: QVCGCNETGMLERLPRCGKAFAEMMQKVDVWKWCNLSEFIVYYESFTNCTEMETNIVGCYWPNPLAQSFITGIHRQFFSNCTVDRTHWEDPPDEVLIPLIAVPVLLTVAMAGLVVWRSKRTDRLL

T2: rat calcitonin receptor (rat, UniProt P32214 25-516)
T2 construct: whole, on cells; Cell membranes of transiently transfected BHK tk'ts 13 cells (Assay VIII); also called rCTR; rCT
T2 sequence (looked up): T1 sequence (looked up) 1

B1: N^ε1-[2-[2-[2-[[(4S)-4-carboxy-4-(19-carboxynonadecanoylamino)butanoyl]amino]ethoxy]ethoxy]acetyl]-[Arg17,Pro21,Pro27,Pro34,His35]-h-amylin (peptide)
peptide: K([AEEA-γGlu-C20 diacid])CNTATCATQRLANFLRHSSPNFGAIPSSTNVGPHTY-NH2
modifications: disulfide 2-7; N-terminus assumed
SMILES: CC[C@H](C)[C@H](NC(=O)[C@H](C)NC(=O)CNC(=O)[C@H](Cc1ccccc1)NC(=O)[C@H](CC(N)=O)NC(=O)[C@@H]1CCCN1C(=O)[C@H](CO)NC(=O)[C@H](CO)NC(=O)[C@H](Cc1c[nH]cn1)NC(=O)[C@H](CCCNC(=N)N)NC(=O)[C@H](CC(C)C)NC(=O)[C@H](Cc1ccccc1)NC(=O)[C@H](CC(N)=O)NC(=O)[C@H](C)NC(=O)[C@H](CC(C)C)NC(=O)[C@H](CCCNC(=N)N)NC(=O)[C@H](CCC(N)=O)NC(=O)[C@@H](NC(=O)[C@H](C)NC(=O)[C@@H]1CSSC[C@H](NC(=O)[C@@H](N)CCCCNC(=O)COCCOCCNC(=O)CC[C@H](NC(=O)CCCCCCCCCCCCCCCCCCC(=O)O)C(=O)O)C(=O)N[C@@H](CC(N)=O)C(=O)N[C@@H]([C@@H](C)O)C(=O)N[C@@H](C)C(=O)N[C@@H]([C@@H](C)O)C(=O)N1)[C@@H](C)O)C(=O)N1CCC[C@H]1C(=O)N[C@@H](CO)C(=O)N[C@@H](CO)C(=O)N[C@H](C(=O)N[C@@H](CC(N)=O)C(=O)N[C@H](C(=O)NCC(=O)N1CCC[C@H]1C(=O)N[C@@H](Cc1c[nH]cn1)C(=O)N[C@H](C(=O)N[C@@H](Cc1ccc(O)cc1)C(N)=O)[C@@H](C)O)C(C)C)[C@@H](C)O
notes: Acylated analogue of human amylin; also called compound 58
B2: N^ε1-[2-[2-[2-[[(4S)-4-carboxy-4-(19-carboxynonadecanoylamino)butanoyl]amino]ethoxy]ethoxy]acetyl]-[Arg17,Pro21,Pro27,Pro34]-h-amylin (peptide)
peptide: K([AEEA-γGlu-C20 diacid])CNTATCATQRLANFLRHSSPNFGAIPSSTNVGPNTY-NH2
modifications: disulfide 2-7; N-terminus assumed
SMILES: CC[C@H](C)[C@H](NC(=O)[C@H](C)NC(=O)CNC(=O)[C@H](Cc1ccccc1)NC(=O)[C@H](CC(N)=O)NC(=O)[C@@H]1CCCN1C(=O)[C@H](CO)NC(=O)[C@H](CO)NC(=O)[C@H](Cc1c[nH]cn1)NC(=O)[C@H](CCCNC(=N)N)NC(=O)[C@H](CC(C)C)NC(=O)[C@H](Cc1ccccc1)NC(=O)[C@H](CC(N)=O)NC(=O)[C@H](C)NC(=O)[C@H](CC(C)C)NC(=O)[C@H](CCCNC(=N)N)NC(=O)[C@H](CCC(N)=O)NC(=O)[C@@H](NC(=O)[C@H](C)NC(=O)[C@@H]1CSSC[C@H](NC(=O)[C@@H](N)CCCCNC(=O)COCCOCCNC(=O)CC[C@H](NC(=O)CCCCCCCCCCCCCCCCCCC(=O)O)C(=O)O)C(=O)N[C@@H](CC(N)=O)C(=O)N[C@@H]([C@@H](C)O)C(=O)N[C@@H](C)C(=O)N[C@@H]([C@@H](C)O)C(=O)N1)[C@@H](C)O)C(=O)N1CCC[C@H]1C(=O)N[C@@H](CO)C(=O)N[C@@H](CO)C(=O)N[C@H](C(=O)N[C@@H](CC(N)=O)C(=O)N[C@H](C(=O)NCC(=O)N1CCC[C@H]1C(=O)N[C@@H](CC(N)=O)C(=O)N[C@H](C(=O)N[C@@H](Cc1ccc(O)cc1)C(N)=O)[C@@H](C)O)C(C)C)[C@@H](C)O
notes: Acylated analogue of human amylin; also called compound 50
B3: N^ε1-[2-[2-[2-[[(4S)-4-carboxy-4-(19-carboxynonadecanoylamino)butanoyl]amino]ethoxy]ethoxy]acetyl]-[His14,Arg17,Pro21,Pro27,Pro31]-h-amylin (peptide)
peptide: K([AEEA-γGlu-C20 diacid])CNTATCATQRLAHFLRHSSPNFGAIPSSTPVGSNTY-NH2
modifications: disulfide 2-7; N-terminus assumed
SMILES: CC[C@H](C)[C@H](NC(=O)[C@H](C)NC(=O)CNC(=O)[C@H](Cc1ccccc1)NC(=O)[C@H](CC(N)=O)NC(=O)[C@@H]1CCCN1C(=O)[C@H](CO)NC(=O)[C@H](CO)NC(=O)[C@H](Cc1c[nH]cn1)NC(=O)[C@H](CCCNC(=N)N)NC(=O)[C@H](CC(C)C)NC(=O)[C@H](Cc1ccccc1)NC(=O)[C@H](Cc1c[nH]cn1)NC(=O)[C@H](C)NC(=O)[C@H](CC(C)C)NC(=O)[C@H](CCCNC(=N)N)NC(=O)[C@H](CCC(N)=O)NC(=O)[C@@H](NC(=O)[C@H](C)NC(=O)[C@@H]1CSSC[C@H](NC(=O)[C@@H](N)CCCCNC(=O)COCCOCCNC(=O)CC[C@H](NC(=O)CCCCCCCCCCCCCCCCCCC(=O)O)C(=O)O)C(=O)N[C@@H](CC(N)=O)C(=O)N[C@@H]([C@@H](C)O)C(=O)N[C@@H](C)C(=O)N[C@@H]([C@@H](C)O)C(=O)N1)[C@@H](C)O)C(=O)N1CCC[C@H]1C(=O)N[C@@H](CO)C(=O)N[C@@H](CO)C(=O)N[C@H](C(=O)N1CCC[C@H]1C(=O)N[C@H](C(=O)NCC(=O)N[C@@H](CO)C(=O)N[C@@H](CC(N)=O)C(=O)N[C@H](C(=O)N[C@@H](Cc1ccc(O)cc1)C(N)=O)[C@@H](C)O)C(C)C)[C@@H](C)O
notes: Acylated analogue of human amylin; also called compound 61
B4: N^ε1-[(4S)-4-carboxy-4-(19-carboxynonadecanoylamino)butanoyl]-[Arg17,Pro21,Pro27,His35]-h-amylin (peptide)
peptide: K([γGlu-C20 diacid])CNTATCATQRLANFLRHSSPNFGAIPSSTNVGSHTY-NH2
modifications: disulfide 2-7; N-terminus assumed
SMILES: CC[C@H](C)[C@H](NC(=O)[C@H](C)NC(=O)CNC(=O)[C@H](Cc1ccccc1)NC(=O)[C@H](CC(N)=O)NC(=O)[C@@H]1CCCN1C(=O)[C@H](CO)NC(=O)[C@H](CO)NC(=O)[C@H](Cc1c[nH]cn1)NC(=O)[C@H](CCCNC(=N)N)NC(=O)[C@H](CC(C)C)NC(=O)[C@H](Cc1ccccc1)NC(=O)[C@H](CC(N)=O)NC(=O)[C@H](C)NC(=O)[C@H](CC(C)C)NC(=O)[C@H](CCCNC(=N)N)NC(=O)[C@H](CCC(N)=O)NC(=O)[C@@H](NC(=O)[C@H](C)NC(=O)[C@@H]1CSSC[C@H](NC(=O)[C@@H](N)CCCCNC(=O)CC[C@H](NC(=O)CCCCCCCCCCCCCCCCCCC(=O)O)C(=O)O)C(=O)N[C@@H](CC(N)=O)C(=O)N[C@@H]([C@@H](C)O)C(=O)N[C@@H](C)C(=O)N[C@@H]([C@@H](C)O)C(=O)N1)[C@@H](C)O)C(=O)N1CCC[C@H]1C(=O)N[C@@H](CO)C(=O)N[C@@H](CO)C(=O)N[C@H](C(=O)N[C@@H](CC(N)=O)C(=O)N[C@H](C(=O)NCC(=O)N[C@@H](CO)C(=O)N[C@@H](Cc1c[nH]cn1)C(=O)N[C@H](C(=O)N[C@@H](Cc1ccc(O)cc1)C(N)=O)[C@@H](C)O)C(C)C)[C@@H](C)O
notes: Acylated analogue of human amylin; also called compound 60
B5: N^ε1-[(4S)-4-carboxy-4-(19-carboxynonadecanoylamino)butanoyl]-[Glu14,Arg17,Pro21,Pro27,Arg35]-h-amylin (peptide)
peptide: K([γGlu-C20 diacid])CNTATCATQRLAEFLRHSSPNFGAIPSSTNVGSRTY-NH2
modifications: disulfide 2-7; N-terminus assumed
SMILES: CC[C@H](C)[C@H](NC(=O)[C@H](C)NC(=O)CNC(=O)[C@H](Cc1ccccc1)NC(=O)[C@H](CC(N)=O)NC(=O)[C@@H]1CCCN1C(=O)[C@H](CO)NC(=O)[C@H](CO)NC(=O)[C@H](Cc1c[nH]cn1)NC(=O)[C@H](CCCNC(=N)N)NC(=O)[C@H](CC(C)C)NC(=O)[C@H](Cc1ccccc1)NC(=O)[C@H](CCC(=O)O)NC(=O)[C@H](C)NC(=O)[C@H](CC(C)C)NC(=O)[C@H](CCCNC(=N)N)NC(=O)[C@H](CCC(N)=O)NC(=O)[C@@H](NC(=O)[C@H](C)NC(=O)[C@@H]1CSSC[C@H](NC(=O)[C@@H](N)CCCCNC(=O)CC[C@H](NC(=O)CCCCCCCCCCCCCCCCCCC(=O)O)C(=O)O)C(=O)N[C@@H](CC(N)=O)C(=O)N[C@@H]([C@@H](C)O)C(=O)N[C@@H](C)C(=O)N[C@@H]([C@@H](C)O)C(=O)N1)[C@@H](C)O)C(=O)N1CCC[C@H]1C(=O)N[C@@H](CO)C(=O)N[C@@H](CO)C(=O)N[C@H](C(=O)N[C@@H](CC(N)=O)C(=O)N[C@H](C(=O)NCC(=O)N[C@@H](CO)C(=O)N[C@@H](CCCNC(=N)N)C(=O)N[C@H](C(=O)N[C@@H](Cc1ccc(O)cc1)C(N)=O)[C@@H](C)O)C(C)C)[C@@H](C)O
notes: Acylated analogue of human amylin; also called compound 51

The binders below were run against T1, rat amylin receptor (rat calcitonin …) (assay: SPA competition vs 125I-rat amylin, membranes with rat CTR + rat RAMP3 (Assay VI)).
B1 gave an IC50 of 0.135 nM.
B2 was tested, and the IC50 was 0.069 nM.
B3 was tested, and the IC50 was 0.842 nM.
With B4 the IC50 was 0.215 nM.
B5 was tested, and the IC50 was 0.523 nM.

The binders below were run against T2, rat calcitonin receptor (assay: ratio IC50 rat calcitonin receptor / IC50 rat amylin receptor).
B1 was tested, and the “Ratio rCT/rAmylin binding” value was 76.6.
B2 was tested, and the “Ratio rCT/rAmylin binding” value was 81.7.
With B3 the “Ratio rCT/rAmylin binding” value was 39.7.
B4 was tested, and the “Ratio rCT/rAmylin binding” value was 122.
In the case of B5, the “Ratio rCT/rAmylin binding” value is reported as 119.

These binders were tested against T2, rat calcitonin receptor (assay: SPA competition vs 125I-calcitonin, membranes with rat CTR (Assay VIII)).
Binder B1 has an IC50 of 10.3 nM.
B2 was tested, and the IC50 was 5.63 nM.
With B3 the IC50 was 33.4 nM.
B4 gave an IC50 of 26.3 nM.
In the case of B5, the IC50 is reported as 62 nM.
